Results on 59 variants are retold here after the Human Domainome abundance scans (Beltran et al. 2025).

± gives the uncertainty stated by the source.

B1: SWI/SNF complex subunit SMARCC2, residues 599 to 641; numbered along this chain, Q8TAQ2 (parent)
chain: REWTEQETLLLLEALEMYKDDWNKVSEHVGSRTQDECILHFLR

The variants in the data set derive from B1. The data set is described as follows: abundance fitness (aPCA) (normalised: wild type 0, dead -1); higher = more abundant; growth selection in yeast, the domain comes from the species named. The conditions noted are these: Homo sapiens.
REWTEQRTLLLLEALEMYKDDWNKVSEHVGSRTQDECILHFLR [E7R]: the abundance fitness was -0.887 ± 0.092.
In the case of REWTEQLTLLLLEALEMYKDDWNKVSEHVGSRTQDECILHFLR [E7L] it was -0.833 ± 0.19.
The figure for REWTEQGTLLLLEALEMYKDDWNKVSEHVGSRTQDECILHFLR [E7G] is -0.756 ± 0.12; for REWTEQKTLLLLEALEMYKDDWNKVSEHVGSRTQDECILHFLR [E7K] it is -0.921 ± 0.19.
For the variant REWTEQTTLLLLEALEMYKDDWNKVSEHVGSRTQDECILHFLR [E7T], the abundance fitness was -0.745 ± 0.2.
The figure for REWTEQDTLLLLEALEMYKDDWNKVSEHVGSRTQDECILHFLR [E7D] is -0.557 ± 0.17; for REWTEQPTLLLLEALEMYKDDWNKVSEHVGSRTQDECILHFLR [E7P] it is -0.804 ± 0.11.
Turning to REWTEQNTLLLLEALEMYKDDWNKVSEHVGSRTQDECILHFLR [E7N], the abundance fitness is -0.948 ± 0.28.
In the case of REWTERETLLLLEALEMYKDDWNKVSEHVGSRTQDECILHFLR [Q6R] it was -0.003 ± 0.069; in that of REWTEPETLLLLEALEMYKDDWNKVSEHVGSRTQDECILHFLR [Q6P], 0.026 ± 0.069; in that of REWTEKETLLLLEALEMYKDDWNKVSEHVGSRTQDECILHFLR [Q6K], -0.167 ± 0.12.
In the case of REWTETETLLLLEALEMYKDDWNKVSEHVGSRTQDECILHFLR [Q6T] it was -0.191 ± 0.11.
The figure for REWTECETLLLLEALEMYKDDWNKVSEHVGSRTQDECILHFLR [Q6C] is -0.394 ± 0.15; for REWTEWETLLLLEALEMYKDDWNKVSEHVGSRTQDECILHFLR [Q6W] it is -0.025 ± 0.1.
Consider REWTEMETLLLLEALEMYKDDWNKVSEHVGSRTQDECILHFLR [Q6M], for which the abundance fitness was found to be 0.144 ± 0.073.
Turning to REWTEGETLLLLEALEMYKDDWNKVSEHVGSRTQDECILHFLR [Q6G], the abundance fitness turned out to be 0.002 ± 0.089.
The figure for REWTENETLLLLEALEMYKDDWNKVSEHVGSRTQDECILHFLR [Q6N] is 0.046 ± 0.18; for REWTEAETLLLLEALEMYKDDWNKVSEHVGSRTQDECILHFLR [Q6A] it is 0.117 ± 0.074.
The figure for REWTEYETLLLLEALEMYKDDWNKVSEHVGSRTQDECILHFLR [Q6Y] is -0.206 ± 0.31; for REWTEEETLLLLEALEMYKDDWNKVSEHVGSRTQDECILHFLR [Q6E] it is -0.485 ± 0.16; for REWTEHETLLLLEALEMYKDDWNKVSEHVGSRTQDECILHFLR [Q6H] it is -0.282 ± 0.15.
On to REWTESETLLLLEALEMYKDDWNKVSEHVGSRTQDECILHFLR [Q6S], for which the abundance fitness was -0.015 ± 0.076.
On to REWTEDETLLLLEALEMYKDDWNKVSEHVGSRTQDECILHFLR [Q6D], for which the abundance fitness was -0.133 ± 0.09.
For the variant REWTEFETLLLLEALEMYKDDWNKVSEHVGSRTQDECILHFLR [Q6F], the abundance fitness was -0.211 ± 0.13.
Take REWTELETLLLLEALEMYKDDWNKVSEHVGSRTQDECILHFLR [Q6L]: the abundance fitness is -0.116 ± 0.068.
With REWTEVETLLLLEALEMYKDDWNKVSEHVGSRTQDECILHFLR [Q6V], the abundance fitness is -0.117 ± 0.095.
The figure for REWTEIETLLLLEALEMYKDDWNKVSEHVGSRTQDECILHFLR [Q6I] is -0.04 ± 0.37.
In the case of REWREQETLLLLEALEMYKDDWNKVSEHVGSRTQDECILHFLR [T4R] it was -0.305 ± 0.11; in that of REWFEQETLLLLEALEMYKDDWNKVSEHVGSRTQDECILHFLR [T4F], -0.32 ± 0.45; in that of REWDEQETLLLLEALEMYKDDWNKVSEHVGSRTQDECILHFLR [T4D], -0.608 ± 0.19.
For the variant REWYEQETLLLLEALEMYKDDWNKVSEHVGSRTQDECILHFLR [T4Y], the abundance fitness is -0.307 ± 0.31.
In the case of REWAEQETLLLLEALEMYKDDWNKVSEHVGSRTQDECILHFLR [T4A] it was -0.309 ± 0.084; in that of REWMEQETLLLLEALEMYKDDWNKVSEHVGSRTQDECILHFLR [T4M], 0.142 ± 0.12.
In the case of REWGEQETLLLLEALEMYKDDWNKVSEHVGSRTQDECILHFLR [T4G] it was -0.794 ± 0.24; in that of REWLEQETLLLLEALEMYKDDWNKVSEHVGSRTQDECILHFLR [T4L], -0.247 ± 0.1; in that of REWEEQETLLLLEALEMYKDDWNKVSEHVGSRTQDECILHFLR [T4E], -0.042 ± 0.13.
In the case of REWSEQETLLLLEALEMYKDDWNKVSEHVGSRTQDECILHFLR [T4S] it was 0.056 ± 0.067; in that of REWWEQETLLLLEALEMYKDDWNKVSEHVGSRTQDECILHFLR [T4W], -0.623 ± 0.14.
As to REWVEQETLLLLEALEMYKDDWNKVSEHVGSRTQDECILHFLR [T4V], the abundance fitness was -0.552 ± 0.081.
In the case of REWNEQETLLLLEALEMYKDDWNKVSEHVGSRTQDECILHFLR [T4N] it was 0.18 ± 0.092; in that of REWCEQETLLLLEALEMYKDDWNKVSEHVGSRTQDECILHFLR [T4C], -0.705 ± 0.17.
Consider REWIEQETLLLLEALEMYKDDWNKVSEHVGSRTQDECILHFLR [T4I], for which the abundance fitness was 0.029 ± 0.24.
The figure for REWTLQETLLLLEALEMYKDDWNKVSEHVGSRTQDECILHFLR [E5L] is -0.442 ± 0.086.
For the variant REWTCQETLLLLEALEMYKDDWNKVSEHVGSRTQDECILHFLR [E5C], the abundance fitness is -0.104 ± 0.074.
The figure for REWTQQETLLLLEALEMYKDDWNKVSEHVGSRTQDECILHFLR [E5Q] is 0.164 ± 0.24.
Regarding REWTDQETLLLLEALEMYKDDWNKVSEHVGSRTQDECILHFLR [E5D], the abundance fitness is -0.692 ± 0.32.
The figure for REWTWQETLLLLEALEMYKDDWNKVSEHVGSRTQDECILHFLR [E5W] is -0.201 ± 0.2; for REWTSQETLLLLEALEMYKDDWNKVSEHVGSRTQDECILHFLR [E5S] it is -0.506 ± 0.078; for REWTFQETLLLLEALEMYKDDWNKVSEHVGSRTQDECILHFLR [E5F] it is -0.347 ± 0.13.
Take REWTIQETLLLLEALEMYKDDWNKVSEHVGSRTQDECILHFLR [E5I]: the abundance fitness was -0.178 ± 0.12.
In the case of REWTNQETLLLLEALEMYKDDWNKVSEHVGSRTQDECILHFLR [E5N] it was -0.362 ± 0.097; in that of REWTAQETLLLLEALEMYKDDWNKVSEHVGSRTQDECILHFLR [E5A], -0.227 ± 0.11.
In the case of REWTRQETLLLLEALEMYKDDWNKVSEHVGSRTQDECILHFLR [E5R] it was -0.339 ± 0.091.
Turning to REWTMQETLLLLEALEMYKDDWNKVSEHVGSRTQDECILHFLR [E5M], the abundance fitness was -0.026 ± 0.16.
REWTYQETLLLLEALEMYKDDWNKVSEHVGSRTQDECILHFLR [E5Y]: the abundance fitness was 0.116 ± 0.12.
The figure for REWTVQETLLLLEALEMYKDDWNKVSEHVGSRTQDECILHFLR [E5V] is -0.189 ± 0.063.
In the case of REWTTQETLLLLEALEMYKDDWNKVSEHVGSRTQDECILHFLR [E5T] it was 0.004 ± 0.092; in that of REWTPQETLLLLEALEMYKDDWNKVSEHVGSRTQDECILHFLR [E5P], -0.39 ± 0.079.
In the case of REWTHQETLLLLEALEMYKDDWNKVSEHVGSRTQDECILHFLR [E5H] it was -0.153 ± 0.084.
